Measurements published in the supplement of paper PMC10065799, “High-throughput profiling of sequence recognition by tyrosine kinases and SH2 domains using bacterial peptide display” (eLife, 2023).

Key:
SHP2-C SH2 = assay: SH2 binding enrichment of the phosphorylated peptide, bacterial display (enrichment ratio); higher = better substrate or ligand; peptides without Tyr show the background
c-Src SH2 = assay: as above
Grb2 SH2 = Grb2 SH2 (UniProt P62993); assay: as above
c-Abl (mouse) = assay: phosphorylation enrichment, bacterial display (enrichment ratio); higher = better substrate or ligand; peptides without Tyr show the background
MERTK = MERTK (UniProt Q12866); assay: as above
EPHB2 = EPHB2 (UniProt P29323); assay: as above
c-Src = assay: as above
AncSZ = assay: as above
Fer (mouse) = assay: as above
Fes = Fes (UniProt P07332); assay: as above
Fyn = Fyn (UniProt P06241); assay: as above
EPHB1 = EPHB1 (UniProt P54762); assay: as above
FGFR3 = FGFR3 (UniProt P22607); assay: as above
FGFR1 = FGFR1 (UniProt P11362); assay: as above
Jak2 = Jak2 (UniProt O60674); assay: as above
Hck = Hck (UniProt P08631); assay: as above
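For SH2 binding enrichment of the phosphorylated peptide, bacterial display in this document: peptide library displayed on the E. coli surface as eCPX fusions, selected cells deep-sequenced, score is each peptide's frequency after selection divided by its frequency in the input.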
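For phosphorylation enrichment, bacterial display in this document: 11-residue human phosphosite peptides and single-mutation variants displayed on the E. coli surface, counted by deep sequencing, each peptide's frequency after selection divided by its frequency in the unselected input library; frequency after pTyr selection over input frequency; kinase dosed for 20-30% of maximal phosphorylation in three min.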

Sequence of EPHB1 (P54762 whole entry, looked up): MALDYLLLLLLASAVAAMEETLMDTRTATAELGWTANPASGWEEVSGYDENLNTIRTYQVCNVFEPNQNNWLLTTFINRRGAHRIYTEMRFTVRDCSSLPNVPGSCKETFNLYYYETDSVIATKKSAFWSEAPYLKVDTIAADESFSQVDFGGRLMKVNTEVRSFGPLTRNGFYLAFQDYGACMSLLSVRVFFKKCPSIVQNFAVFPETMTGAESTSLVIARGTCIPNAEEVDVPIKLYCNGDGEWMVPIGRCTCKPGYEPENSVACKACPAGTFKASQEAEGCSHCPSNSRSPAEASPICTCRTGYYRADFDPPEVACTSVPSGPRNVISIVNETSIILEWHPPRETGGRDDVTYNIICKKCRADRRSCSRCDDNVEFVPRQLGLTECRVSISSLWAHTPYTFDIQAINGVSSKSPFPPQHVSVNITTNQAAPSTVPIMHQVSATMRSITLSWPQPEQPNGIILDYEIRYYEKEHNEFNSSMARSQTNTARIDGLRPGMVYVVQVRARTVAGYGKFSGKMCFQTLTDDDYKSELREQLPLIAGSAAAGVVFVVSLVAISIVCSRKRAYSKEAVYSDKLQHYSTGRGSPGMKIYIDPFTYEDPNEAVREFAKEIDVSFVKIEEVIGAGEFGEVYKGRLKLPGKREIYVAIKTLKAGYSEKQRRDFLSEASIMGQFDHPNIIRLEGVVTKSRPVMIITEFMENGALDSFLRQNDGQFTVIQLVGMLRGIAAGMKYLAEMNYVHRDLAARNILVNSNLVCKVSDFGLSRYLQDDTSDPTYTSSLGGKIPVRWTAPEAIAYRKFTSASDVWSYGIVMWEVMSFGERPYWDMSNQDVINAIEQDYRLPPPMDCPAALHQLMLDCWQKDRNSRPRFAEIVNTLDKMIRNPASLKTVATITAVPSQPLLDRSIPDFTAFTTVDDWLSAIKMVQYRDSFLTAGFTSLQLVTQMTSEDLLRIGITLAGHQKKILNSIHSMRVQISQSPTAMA
Sequence of Fes (P07332 whole entry, looked up): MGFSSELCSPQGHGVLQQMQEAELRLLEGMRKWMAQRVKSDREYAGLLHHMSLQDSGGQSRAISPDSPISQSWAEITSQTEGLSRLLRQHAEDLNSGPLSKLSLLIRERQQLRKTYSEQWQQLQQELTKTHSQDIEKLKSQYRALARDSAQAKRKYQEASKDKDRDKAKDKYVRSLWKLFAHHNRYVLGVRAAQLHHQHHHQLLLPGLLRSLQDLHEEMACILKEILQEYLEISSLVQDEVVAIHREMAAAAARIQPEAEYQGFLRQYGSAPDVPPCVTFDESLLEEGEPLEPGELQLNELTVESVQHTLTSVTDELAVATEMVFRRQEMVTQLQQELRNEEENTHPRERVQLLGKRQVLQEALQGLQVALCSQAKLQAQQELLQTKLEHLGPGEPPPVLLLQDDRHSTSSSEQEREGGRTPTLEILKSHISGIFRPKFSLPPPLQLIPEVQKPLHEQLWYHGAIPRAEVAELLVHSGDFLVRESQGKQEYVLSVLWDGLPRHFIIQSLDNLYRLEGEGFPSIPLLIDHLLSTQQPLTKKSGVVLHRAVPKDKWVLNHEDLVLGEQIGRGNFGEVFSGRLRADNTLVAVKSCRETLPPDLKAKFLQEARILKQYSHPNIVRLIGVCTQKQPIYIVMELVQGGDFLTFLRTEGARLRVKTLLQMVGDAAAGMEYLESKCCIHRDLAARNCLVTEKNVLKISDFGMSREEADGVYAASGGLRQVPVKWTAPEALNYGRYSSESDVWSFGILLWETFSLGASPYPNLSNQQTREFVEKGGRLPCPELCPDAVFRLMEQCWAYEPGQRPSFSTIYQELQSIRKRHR
Sequence of Fyn (P06241 whole entry, looked up): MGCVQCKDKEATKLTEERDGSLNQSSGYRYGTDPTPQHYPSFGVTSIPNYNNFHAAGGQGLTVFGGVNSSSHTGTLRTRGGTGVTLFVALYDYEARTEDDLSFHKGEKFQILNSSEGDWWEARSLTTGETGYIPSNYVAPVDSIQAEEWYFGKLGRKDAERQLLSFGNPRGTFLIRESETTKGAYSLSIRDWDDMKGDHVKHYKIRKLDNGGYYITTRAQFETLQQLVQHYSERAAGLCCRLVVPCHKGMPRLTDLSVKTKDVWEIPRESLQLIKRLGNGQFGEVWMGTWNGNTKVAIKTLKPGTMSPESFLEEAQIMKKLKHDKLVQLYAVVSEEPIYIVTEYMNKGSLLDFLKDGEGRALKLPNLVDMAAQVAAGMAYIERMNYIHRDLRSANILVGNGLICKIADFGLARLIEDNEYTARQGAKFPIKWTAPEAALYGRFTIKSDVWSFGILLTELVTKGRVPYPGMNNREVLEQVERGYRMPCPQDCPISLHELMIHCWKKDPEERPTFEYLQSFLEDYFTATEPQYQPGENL
Sequence of FGFR3 (P22607 whole entry, looked up): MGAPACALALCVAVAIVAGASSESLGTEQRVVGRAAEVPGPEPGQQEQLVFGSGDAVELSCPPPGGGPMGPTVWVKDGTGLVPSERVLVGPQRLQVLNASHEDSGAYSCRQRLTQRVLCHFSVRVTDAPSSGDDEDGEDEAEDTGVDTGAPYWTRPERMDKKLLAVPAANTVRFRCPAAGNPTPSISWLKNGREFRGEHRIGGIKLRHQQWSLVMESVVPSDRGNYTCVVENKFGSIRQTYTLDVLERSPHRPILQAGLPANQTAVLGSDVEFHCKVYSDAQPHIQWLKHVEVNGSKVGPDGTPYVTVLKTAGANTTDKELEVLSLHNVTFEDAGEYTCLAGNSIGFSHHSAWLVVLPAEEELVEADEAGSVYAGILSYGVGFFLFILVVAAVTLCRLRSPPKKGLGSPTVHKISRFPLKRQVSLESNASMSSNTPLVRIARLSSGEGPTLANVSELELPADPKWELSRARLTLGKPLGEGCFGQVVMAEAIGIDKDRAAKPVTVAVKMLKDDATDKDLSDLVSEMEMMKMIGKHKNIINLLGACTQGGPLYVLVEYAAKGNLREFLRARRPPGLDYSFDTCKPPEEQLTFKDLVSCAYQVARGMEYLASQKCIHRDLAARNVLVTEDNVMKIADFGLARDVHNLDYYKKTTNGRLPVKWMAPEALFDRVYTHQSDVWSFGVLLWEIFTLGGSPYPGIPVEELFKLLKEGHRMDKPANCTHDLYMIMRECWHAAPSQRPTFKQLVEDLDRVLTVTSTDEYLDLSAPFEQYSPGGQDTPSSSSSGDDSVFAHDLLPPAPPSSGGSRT
Sequence of MERTK (Q12866 whole entry, looked up): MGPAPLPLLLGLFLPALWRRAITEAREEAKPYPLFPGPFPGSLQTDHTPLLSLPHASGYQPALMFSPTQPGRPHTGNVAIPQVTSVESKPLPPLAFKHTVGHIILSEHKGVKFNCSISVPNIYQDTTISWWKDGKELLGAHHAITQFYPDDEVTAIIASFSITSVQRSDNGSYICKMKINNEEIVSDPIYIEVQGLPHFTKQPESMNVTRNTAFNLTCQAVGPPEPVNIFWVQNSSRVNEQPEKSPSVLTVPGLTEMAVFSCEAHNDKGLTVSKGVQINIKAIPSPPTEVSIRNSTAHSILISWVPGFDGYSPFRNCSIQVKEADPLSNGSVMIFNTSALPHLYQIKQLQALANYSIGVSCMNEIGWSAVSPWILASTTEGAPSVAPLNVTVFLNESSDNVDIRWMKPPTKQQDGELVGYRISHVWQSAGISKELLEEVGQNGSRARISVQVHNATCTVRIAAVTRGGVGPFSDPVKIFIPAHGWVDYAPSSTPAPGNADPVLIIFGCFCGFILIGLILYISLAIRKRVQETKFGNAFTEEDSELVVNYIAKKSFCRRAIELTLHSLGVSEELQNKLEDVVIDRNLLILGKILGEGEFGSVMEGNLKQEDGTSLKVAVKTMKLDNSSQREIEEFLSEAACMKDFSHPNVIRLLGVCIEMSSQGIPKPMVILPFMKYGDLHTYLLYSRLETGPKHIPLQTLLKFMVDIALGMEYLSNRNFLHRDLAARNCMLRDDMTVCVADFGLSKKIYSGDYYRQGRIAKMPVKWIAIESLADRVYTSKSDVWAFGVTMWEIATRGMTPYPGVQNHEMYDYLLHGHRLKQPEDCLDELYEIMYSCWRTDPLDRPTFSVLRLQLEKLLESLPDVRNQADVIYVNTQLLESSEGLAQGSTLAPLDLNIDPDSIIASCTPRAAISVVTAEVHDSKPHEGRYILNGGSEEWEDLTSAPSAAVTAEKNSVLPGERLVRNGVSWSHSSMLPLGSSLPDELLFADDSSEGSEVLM
Sequence of FGFR1 (P11362 whole entry, looked up): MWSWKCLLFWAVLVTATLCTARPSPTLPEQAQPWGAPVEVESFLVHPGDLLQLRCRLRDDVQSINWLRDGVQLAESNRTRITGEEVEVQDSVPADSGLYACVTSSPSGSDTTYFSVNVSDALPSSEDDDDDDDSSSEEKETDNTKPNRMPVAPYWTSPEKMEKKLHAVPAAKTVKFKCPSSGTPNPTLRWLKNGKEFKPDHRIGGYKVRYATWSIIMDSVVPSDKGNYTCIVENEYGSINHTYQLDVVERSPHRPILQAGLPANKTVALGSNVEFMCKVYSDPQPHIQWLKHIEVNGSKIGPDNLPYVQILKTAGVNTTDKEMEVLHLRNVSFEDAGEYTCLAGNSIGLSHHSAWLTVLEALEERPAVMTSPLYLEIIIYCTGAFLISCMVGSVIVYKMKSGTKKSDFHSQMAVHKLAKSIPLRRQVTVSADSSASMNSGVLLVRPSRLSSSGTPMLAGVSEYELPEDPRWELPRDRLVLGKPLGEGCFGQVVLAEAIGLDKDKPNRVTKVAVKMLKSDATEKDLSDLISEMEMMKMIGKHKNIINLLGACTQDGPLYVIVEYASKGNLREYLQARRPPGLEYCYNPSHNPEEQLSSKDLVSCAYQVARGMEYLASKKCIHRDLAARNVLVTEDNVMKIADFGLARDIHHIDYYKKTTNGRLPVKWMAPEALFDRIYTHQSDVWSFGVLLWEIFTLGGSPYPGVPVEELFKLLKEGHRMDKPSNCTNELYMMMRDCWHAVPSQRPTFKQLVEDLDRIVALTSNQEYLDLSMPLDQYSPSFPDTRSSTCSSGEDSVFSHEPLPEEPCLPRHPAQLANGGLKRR

| Sequence | SH2 binding enrichment (SHP2-C SH2) | SH2 binding enrichment (c-Src SH2) | SH2 binding enrichment (Grb2 SH2) | phosphorylation enrichment (c-Abl (mouse)) | phosphorylation enrichment (MERTK) | phosphorylation enrichment (EPHB2) | phosphorylation enrichment (c-Src) | phosphorylation enrichment (AncSZ) | phosphorylation enrichment (Fer (mouse)) | phosphorylation enrichment (Fes) | phosphorylation enrichment (Fyn) | phosphorylation enrichment (EPHB1) | phosphorylation enrichment (FGFR3) | phosphorylation enrichment (FGFR1) | phosphorylation enrichment (Jak2) | phosphorylation enrichment (Hck) |
| --- | --- | --- | --- | --- | --- | --- | --- | --- | --- | --- | --- | --- | --- | --- | --- | --- |
| SQETFYRVSNM [ABCD1_Y181_Q178E_YF] | 0.807 | 0.597 | 0.836 | 0.86 | 0.448 | 0.528 | 0.49 | 0.61 | 0.443 | 0.763 | 0.396 | 0.412 | 0.473 | 0.386 | 0.7 | 0.457 |
| SQQTYCRVSNM [ABCD1_Y181_Y181C] | 0.616 | 1.01 | 0.897 | 0.851 | 0.738 | 1.98 | 0.718 | 0.799 | 0.526 | 0.88 | 0.751 | 3.76 | 0.683 | 0.587 | 0.623 | 1.41 |
| SRVNKYSTAFG [GJB3_Y16_G12R] | 1.3 | 0.896 | 1.02 | 0.584 | 0.406 | 0.347 | 0.383 | 0.571 | 0.499 | 0.633 | 0.371 | 0.426 | 0.489 | 0.383 | 0.644 | 0.344 |
| SSDKVYAHQMD [MLH1_Y379_V384D] | 0.552 | 0.576 | 0.729 | 0.442 | 0.408 | 0.502 | 0.491 | 0.611 | 0.395 | 0.708 | 0.493 | 0.537 | 0.52 | 0.452 | 0.497 | 0.419 |
| SSNLYYRWLTA [CNGA3_Y169] | 0.763 | 0.545 | 0.791 | 3.22 | 8.61 | 1.91 | 2.87 | 1.04 | 1.98 | 0.897 | 2 | 1.52 | 6.24 | 6.93 | 4.69 | 4.9 |
| SSNTEYLSASD [INSR_Y999_P997T] | 0.573 | 0.547 | 0.689 | 0.556 | 0.435 | 0.573 | 0.474 | 0.884 | 0.48 | 0.746 | 0.52 | 0.393 | 0.615 | 0.518 | 0.82 | 0.501 |
| SSSPTYPDLPF [GLI3_Y168] | 0.673 | 0.504 | 0.859 | 0.967 | 0.654 | 0.543 | 0.565 | 0.839 | 0.745 | 0.933 | 0.568 | 0.634 | 0.627 | 0.784 | 0.91 | 0.59 |
| SSWPGYVRPLP [HSPB1_Y54] | 0.654 | 0.741 | 0.97 | 0.54 | 0.407 | 0.423 | 0.491 | 0.774 | 0.459 | 0.648 | 0.52 | 0.48 | 0.458 | 0.491 | 2.22 | 0.485 |
| STAPSYGNPSS [CD19_Y378_G373S] | 0.694 | 0.458 | 0.744 | 0.482 | 0.402 | 0.357 | 0.381 | 0.545 | 0.32 | 0.505 | 0.383 | 0.328 | 0.358 | 0.361 | 0.503 | 0.34 |
| STFVPYEIKVQ [L1CAM_Y784] | 0.726 | 0.552 | 0.85 | 0.678 | 0.338 | 0.512 | 0.393 | 0.906 | 0.527 | 0.996 | 0.538 | 0.564 | 0.629 | 0.506 | 0.805 | 0.475 |
| SVQIVYKPVDL [MAPT_Y627] | 0.845 | 0.515 | 0.951 | 0.689 | 0.376 | 0.499 | 0.464 | 1.17 | 0.467 | 1.12 | 0.4 | 0.698 | 0.65 | 0.409 | 0.891 | 0.455 |

Second part, led by results:

| SH2 binding enrichment (SHP2-C SH2) | SH2 binding enrichment (c-Src SH2) | SH2 binding enrichment (Grb2 SH2) | Sequence | phosphorylation enrichment (c-Abl (mouse)) | phosphorylation enrichment (MERTK) | phosphorylation enrichment (EPHB2) | phosphorylation enrichment (c-Src) | phosphorylation enrichment (AncSZ) | phosphorylation enrichment (Fer (mouse)) | phosphorylation enrichment (Fes) | phosphorylation enrichment (Fyn) | phosphorylation enrichment (EPHB1) | phosphorylation enrichment (FGFR3) | phosphorylation enrichment (FGFR1) | phosphorylation enrichment (Jak2) | phosphorylation enrichment (Hck) |
| --- | --- | --- | --- | --- | --- | --- | --- | --- | --- | --- | --- | --- | --- | --- | --- | --- |
| 2.11 | 0.857 | 2.26 | SRPTQYSSFSC [SPEM2_Y104] | 0.752 | 0.619 | 0.511 | 0.7 | 0.764 | 0.486 | 0.986 | 0.627 | 0.584 | 0.578 | 0.557 | 0.816 | 0.598 |
| 0.77 | 0.697 | 0.854 | SRVTQYERDFE [SNX1_Y463] | 0.844 | 0.379 | 0.486 | 0.396 | 0.837 | 0.419 | 0.954 | 0.46 | 0.428 | 0.611 | 0.501 | 0.635 | 0.476 |
| 3.04 | 2.42 | 0.721 | SSAAGYACLAY [MVD_Y131] | 0.897 | 0.498 | 0.615 | 0.593 | 0.9 | 0.574 | 1.07 | 0.531 | 0.553 | 0.736 | 0.547 | 1.02 | 0.575 |
| 0.709 | 0.615 | 0.915 | STKELYEKFMI | 0.6 | 0.872 | 0.414 | 1.01 | 0.725 | 6.97 | 0.857 | 0.724 | 0.411 | 0.492 | 0.409 | 0.619 | 1.01 |
| 0.662 | 0.419 | 0.667 | SVTCTDSPALN [TP53_Y126_Y126D] | 0.847 | 0.351 | 0.564 | 0.427 | 0.975 | 0.567 | 1.13 | 0.447 | 0.6 | 0.805 | 0.491 | 0.958 | 0.474 |
